B1: TRIM15 (parent)
chain: LSQMGAQSSGKILLCPLCQEEEQA
B2: FLOT1 (parent)
chain: QMAKKAEAFQLYQEAAQLDMLLEK

Variants of: B1
Assay: protein stability index of a GFP-peptide fusion (GPS, HEK-293T) (PSI 1-6); higher = more stable
Settings: c terminus: a fixed tail appended
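Also: lentivirally expressed fusions sorted by FACS into six bins by GFP to DsRed ratio, PSI derived from sequencing read proportions per bin multiplied by bin number.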

**Q.** For LSQMGAQSSGKILLCPLCQEEEQH [A24H], which protein stability index is on record?
**A.** 3.59

**Q.** With LSQMGAQSSGKILLCPLCQTEEQA [E20T] as the variant, how does the protein stability index read?
**A.** 3.19

**Q.** Which protein stability index does the source give for LSQMGAQSSGKILLCPLCQYEEQA [E20Y] here?
**A.** 2.01

**Q.** With LSQMGAQSSGKILLCPLCQPEEQA [E20P] as the variant, how does the protein stability index read?
**A.** 3.75

**Q.** With LSQMGAQSSGKILLCPLCQGEEQA [E20G] as the variant, how does the protein stability index read?
**A.** 2.81

**Q.** For LSQMGAQSSGKILLCPLCQVEEQA [E20V], which protein stability index is on record?
**A.** 2.79

**Q.** With LSQMGAQSSGKILLCPLCQHEEQA [E20H] as the variant, how does the protein stability index read?
**A.** 2.65

**Q.** Which protein stability index does the source give for LSQMGAQSSGKILLCPLCQDEEQA [E20D] here?
**A.** 4.27

**Q.** With LSQMGAQSSGKILLCPLCQCEEQA [E20C] as the variant, how does the protein stability index read?
**A.** 2.44

**Q.** Which protein stability index does the source give for LSQMGAQSSGKILLCPLCQLEEQA [E20L] here?
**A.** 2.82

**Q.** For LSQMGAQSSGKILLCPLCQSEEQA [E20S], which protein stability index is on record?
**A.** 2.64

**Q.** For LSQMGAQSSGKILLCPLCQREEQA [E20R], which protein stability index is on record?
**A.** 3.77

**Q.** Which protein stability index does the source give for LSQMGAQSSGKILLCPLCQFEEQA [E20F] here?
**A.** 2.27

**Q.** With LSQMGAQSSGKILLCPLCQMEEQA [E20M] as the variant, how does the protein stability index read?
**A.** 2.73

**Q.** Which protein stability index does the source give for LSQMGAQSSGKILLCPLCQAEEQA [E20A] here?
**A.** 3.49

**Q.** With LSQMGAQSSGKILLCPLCQIEEQA [E20I] as the variant, how does the protein stability index read?
**A.** 2.79

**Q.** Which protein stability index does the source give for LSQMGAQSSGKILLCPLCQKEEQA [E20K] here?
**A.** 3.58

Variants of: B2
Assay: as above
Settings: c terminus: a fixed tail appended

**Q.** For QMAKSAEAFQLYQEAAQLDMLLEK [K5S], which protein stability index is on record?
**A.** 1.22

**Q.** Which protein stability index does the source give for QMAKLAEAFQLYQEAAQLDMLLEK [K5L] here?
**A.** 3.38

**Q.** Which protein stability index does the source give for QMAKIAEAFQLYQEAAQLDMLLEK [K5I] here?
**A.** 2.49

**Q.** Which protein stability index does the source give for QMAKCAEAFQLYQEAAQLDMLLEK [K5C] here?
**A.** 2.68

**Q.** With QMAKVAEAFQLYQEAAQLDMLLEK [K5V] as the variant, how does the protein stability index read?
**A.** 1.78

**Q.** For QMAKPAEAFQLYQEAAQLDMLLEK [K5P], which protein stability index is on record?
**A.** 2.83

**Q.** Which protein stability index does the source give for QMAKQAEAFQLYQEAAQLDMLLEK [K5Q] here?
**A.** 1.59

**Q.** Which protein stability index does the source give for QMAKEAEAFQLYQEAAQLDMLLEK [K5E] here?
**A.** 2.21

**Q.** With QMAKNAEAFQLYQEAAQLDMLLEK [K5N] as the variant, how does the protein stability index read?
**A.** 1.42

**Q.** For QMAKTAEAFQLYQEAAQLDMLLEK [K5T], which protein stability index is on record?
**A.** 2.01

**Q.** For QMAKRAEAFQLYQEAAQLDMLLEK [K5R], which protein stability index is on record?
**A.** 2.3

**Q.** With QMAKGAEAFQLYQEAAQLDMLLEK [K5G] as the variant, how does the protein stability index read?
**A.** 1.92

**Q.** For QMAKFAEAFQLYQEAAQLDMLLEK [K5F], which protein stability index is on record?
**A.** 2.8

**Q.** Which protein stability index does the source give for QMAKDAEAFQLYQEAAQLDMLLEK [K5D] here?
**A.** 2.1

**Q.** Which protein stability index does the source give for QMAKHAEAFQLYQEAAQLDMLLEK [K5H] here?
**A.** 1.75

**Q.** Which protein stability index does the source give for QMHKKAEAFQLYQEAAQLDMLLEK [A3H] here?
**A.** 1.93

**Q.** With QMQKKAEAFQLYQEAAQLDMLLEK [A3Q] as the variant, how does the protein stability index read?
**A.** 1.93

**Q.** Which protein stability index does the source give for QMFKKAEAFQLYQEAAQLDMLLEK [A3F] here?
**A.** 1.16

**Q.** With QMMKKAEAFQLYQEAAQLDMLLEK [A3M] as the variant, how does the protein stability index read?
**A.** 2.44

**Q.** With QMVKKAEAFQLYQEAAQLDMLLEK [A3V] as the variant, how does the protein stability index read?
**A.** 1.29

**Q.** Which protein stability index does the source give for QMPKKAEAFQLYQEAAQLDMLLEK [A3P] here?
**A.** 1.63

**Q.** For QMNKKAEAFQLYQEAAQLDMLLEK [A3N], which protein stability index is on record?
**A.** 3.51

**Q.** For QMLKKAEAFQLYQEAAQLDMLLEK [A3L], which protein stability index is on record?
**A.** 2.63

**Q.** For QMWKKAEAFQLYQEAAQLDMLLEK [A3W], which protein stability index is on record?
**A.** 1.21

**Q.** Which protein stability index does the source give for QMCKKAEAFQLYQEAAQLDMLLEK [A3C] here?
**A.** 2.81

**Q.** For QMTKKAEAFQLYQEAAQLDMLLEK [A3T], which protein stability index is on record?
**A.** 1.16

**Q.** With QMIKKAEAFQLYQEAAQLDMLLEK [A3I] as the variant, how does the protein stability index read?
**A.** 1.88

**Q.** Which protein stability index does the source give for QMYKKAEAFQLYQEAAQLDMLLEK [A3Y] here?
**A.** 2.83

**Q.** For QKAKKAEAFQLYQEAAQLDMLLEK [M2K], which protein stability index is on record?
**A.** 2.4

**Q.** With QNAKKAEAFQLYQEAAQLDMLLEK [M2N] as the variant, how does the protein stability index read?
**A.** 1.92

**Q.** For QVAKKAEAFQLYQEAAQLDMLLEK [M2V], which protein stability index is on record?
**A.** 1.22

**Q.** With QGAKKAEAFQLYQEAAQLDMLLEK [M2G] as the variant, how does the protein stability index read?
**A.** 2.78

**Q.** With QHAKKAEAFQLYQEAAQLDMLLEK [M2H] as the variant, how does the protein stability index read?
**A.** 1.57

**Q.** Which protein stability index does the source give for QDAKKAEAFQLYQEAAQLDMLLEK [M2D] here?
**A.** 2.45

**Q.** With QTAKKAEAFQLYQEAAQLDMLLEK [M2T] as the variant, how does the protein stability index read?
**A.** 1.76

**Q.** For QFAKKAEAFQLYQEAAQLDMLLEK [M2F], which protein stability index is on record?
**A.** 1.78

**Q.** For QEAKKAEAFQLYQEAAQLDMLLEK [M2E], which protein stability index is on record?
**A.** 2.07

**Q.** For QQAKKAEAFQLYQEAAQLDMLLEK [M2Q], which protein stability index is on record?
**A.** 2.01

**Q.** For QYAKKAEAFQLYQEAAQLDMLLEK [M2Y], which protein stability index is on record?
**A.** 2.1

**Q.** Which protein stability index does the source give for QAAKKAEAFQLYQEAAQLDMLLEK [M2A] here?
**A.** 1.46

**Q.** Which protein stability index does the source give for QIAKKAEAFQLYQEAAQLDMLLEK [M2I] here?
**A.** 1.36

**Q.** For QPAKKAEAFQLYQEAAQLDMLLEK [M2P], which protein stability index is on record?
**A.** 1.46

**Q.** With QLAKKAEAFQLYQEAAQLDMLLEK [M2L] as the variant, how does the protein stability index read?
**A.** 1.84

**Q.** With QSAKKAEAFQLYQEAAQLDMLLEK [M2S] as the variant, how does the protein stability index read?
**A.** 1.14

**Q.** For QCAKKAEAFQLYQEAAQLDMLLEK [M2C], which protein stability index is on record?
**A.** 1.61

**Q.** With SMAKKAEAFQLYQEAAQLDMLLEK [Q1S] as the variant, how does the protein stability index read?
**A.** 3.78

**Q.** For NMAKKAEAFQLYQEAAQLDMLLEK [Q1N], which protein stability index is on record?
**A.** 1.8

**Q.** With HMAKKAEAFQLYQEAAQLDMLLEK [Q1H] as the variant, how does the protein stability index read?
**A.** 2.21

**Q.** For PMAKKAEAFQLYQEAAQLDMLLEK [Q1P], which protein stability index is on record?
**A.** 2.05

**Q.** With VMAKKAEAFQLYQEAAQLDMLLEK [Q1V] as the variant, how does the protein stability index read?
**A.** 2.23

**Q.** With YMAKKAEAFQLYQEAAQLDMLLEK [Q1Y] as the variant, how does the protein stability index read?
**A.** 2.96

**Q.** For RMAKKAEAFQLYQEAAQLDMLLEK [Q1R], which protein stability index is on record?
**A.** 1.69

**Q.** Which protein stability index does the source give for EMAKKAEAFQLYQEAAQLDMLLEK [Q1E] here?
**A.** 2.19

**Q.** Which protein stability index does the source give for AMAKKAEAFQLYQEAAQLDMLLEK [Q1A] here?
**A.** 2.01

**Q.** For TMAKKAEAFQLYQEAAQLDMLLEK [Q1T], which protein stability index is on record?
**A.** 2.27

**Q.** Which protein stability index does the source give for LMAKKAEAFQLYQEAAQLDMLLEK [Q1L] here?
**A.** 2.5

**Q.** With DMAKKAEAFQLYQEAAQLDMLLEK [Q1D] as the variant, how does the protein stability index read?
**A.** 1.9

**Q.** Which protein stability index does the source give for IMAKKAEAFQLYQEAAQLDMLLEK [Q1I] here?
**A.** 2.83

**Q.** With QMAKKFEAFQLYQEAAQLDMLLEK [A6F] as the variant, how does the protein stability index read?
**A.** 1.99

**Q.** With QMAKKCEAFQLYQEAAQLDMLLEK [A6C] as the variant, how does the protein stability index read?
**A.** 1.53

**Q.** For QMAKKDEAFQLYQEAAQLDMLLEK [A6D], which protein stability index is on record?
**A.** 1.57

**Q.** With QMAKKEEAFQLYQEAAQLDMLLEK [A6E] as the variant, how does the protein stability index read?
**A.** 1.92

**Q.** Which protein stability index does the source give for QMAQKAEAFQLYQEAAQLDMLLEK [K4Q] here?
**A.** 1.51

**Q.** For QMAHKAEAFQLYQEAAQLDMLLEK [K4H], which protein stability index is on record?
**A.** 2.12

**Q.** For QMATKAEAFQLYQEAAQLDMLLEK [K4T], which protein stability index is on record?
**A.** 1.15

**Q.** For QMAFKAEAFQLYQEAAQLDMLLEK [K4F], which protein stability index is on record?
**A.** 1.68

**Q.** Which protein stability index does the source give for QMANKAEAFQLYQEAAQLDMLLEK [K4N] here?
**A.** 2.38

**Q.** For QMAMKAEAFQLYQEAAQLDMLLEK [K4M], which protein stability index is on record?
**A.** 1.55

**Q.** Which protein stability index does the source give for QMAEKAEAFQLYQEAAQLDMLLEK [K4E] here?
**A.** 2.56

**Q.** With QMAAKAEAFQLYQEAAQLDMLLEK [K4A] as the variant, how does the protein stability index read?
**A.** 1.43

**Q.** With QMADKAEAFQLYQEAAQLDMLLEK [K4D] as the variant, how does the protein stability index read?
**A.** 2.94

**Q.** Which protein stability index does the source give for QMAPKAEAFQLYQEAAQLDMLLEK [K4P] here?
**A.** 2.3

**Q.** Which protein stability index does the source give for QMAGKAEAFQLYQEAAQLDMLLEK [K4G] here?
**A.** 2.15

**Q.** With QMACKAEAFQLYQEAAQLDMLLEK [K4C] as the variant, how does the protein stability index read?
**A.** 1.86

**Q.** For QMAVKAEAFQLYQEAAQLDMLLEK [K4V], which protein stability index is on record?
**A.** 1.47

**Q.** For QMAIKAEAFQLYQEAAQLDMLLEK [K4I], which protein stability index is on record?
**A.** 2.27

**Q.** Which protein stability index does the source give for QMAYKAEAFQLYQEAAQLDMLLEK [K4Y] here?
**A.** 2.25
